Experimental findings from the NTF2 design screens of Basanta et al. (2020) are described below.

The nature of the data set: protease stability score; higher = more stable; yeast display proteolysis, trypsin and chymotrypsin.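 Note: log10 excess protease needed over predicted unfolded state with 0 meaning unfolded.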
“DEDHLKDANRRVVHALEHGDPDEFMNMADKDVQIEIGDTVVEGSHKLKEWAEDLHNRVDHIEILKVDLQGDTLNLNVRMRSNGHNRNAVLHVRVHNGKIQSLRMKDN”: the protease stability score was 0.55.

“DEEAHKLMEEMMRAWKHGDSQRVADLVDPNARVKIGDKEVRGHEQIKELVHTLKTEMRIEYQSISAENHGNHVEVDARLSVESNGKPEQVDFKLRLVVQNGRIREISADYKP” returned a protease stability score of -0.035.

“DEKIKQNIEEFLKAVQHGDEERMTQLVDPNAKIVVGNQRVHGMEEYARDIVRKVKEIRIKIDRMHISVQGNKAVITMVYVININGKPVTFRAVYIYEVHDGRVKRVKNNIPEEDQKKVDS” returned a protease stability score of 0.733.

Turning to “DDDNLKRQNEDVNRAVQHGDEKKVADMADPNVKVYYGDKEIHGREKVKEWWKRLADRADSFTVVDIELQGEKIRVRVKANIDGKHVDMEFEAHASNGRVKKMHINPDQFRQLRS”, the protease stability score amounted to 0.445.

Turning to “DEENLEIAKDLIRAQETGDEERIQNLLDPNVKIDVGDKSIHGREHLRKTQQEQKRNMRFDVDSVENKVHNGQVRVDAHVRERHNGQPTTKRYTLHMHFHNGKVERIRLQDKG”, the protease stability score worked out at 0.318.

In turn, “DRTAEKVLRQFLHAIRDNNPEQMVDLMDPNVTLEIGDKEITGRESAARTAKTRNDEQRMSLSDYRIDVKGDRITADIDQYNEHNGKPRRHQYILDVNIHNGKIKSLVYESDK” registered a protease stability score of -0.029.

“DQREIVTKILRDFVKAFKTGDQDKYEKLVDKDVEYNIGDKTYHGREEAKKLFRELVKQVDHYSVHYKSISVRNGRAKVEAIQYYKHDGRTYHNKVSYTFRIQGDKIRMQDATFS” gave a protease stability score of 0.602.

“DETARDRLEELWRTMERNDPDKLTRQADKDVEVHVGDKELHGMKQVATTLAHEMREMDVEIEIREVNVQGNNVEVDMIFRAKVNGKPIHNKASFVVTFNNGKAESIELRVPPEFQKQKRK” came in with a protease stability score of -0.222.

Take “DDDAVRKARELQKAYDHGDEQKVRDLADPNARVRVGDKKLHGMEDIAHTLAERDKQIDNTVRVDRITAHNGRVDANLRMRNNNNGRPNNFELDLKVVVDNGNIVDVDRQNNR”: the protease stability score is -0.207.

The sequence “DEDKVRKFQEYIEAYRRGDEQKLLKLMDPNVHVEIGDRRYHGHEDMEKILHKEIREIRVDVKIQSIEVRNGHITAHLVMSVNVNGHPVQMQFTVVIEMTNGKIKSIKYRVSEEQKRRFDS” showed a protease stability score of 0.49.

Sequence “DEEDNETALRTMMELIVEGNTNQAHRLFDENATVKIGDTTFHGREQIAQAIRHLHEQADHMEVKDFRLTGDKARANVQLHHNGKTIEVDVVFRVSNGRVKHMFIDPQQVRHLRG” displayed a protease stability score of 1.05.

As to “DEKAKHMVERFFTALTTGDEQKLRDNVDPNAKFHYGDKRISGMEDNARTLVEEQKEIRFQYDRMHLDAKGDTIDVKLKYIADVNGKPIDVHVDVKFQFQNGRVQSISERIDPRVEKEMHS”, the protease stability score was 0.162.

On to “DETAQKVANQFFEALKNGDPDQVRRLLDKNATVRIGEWQVHGREQASKDVHQNKQHAEYDWRIRSVKVTGNKVDIDAEVTYQHNGEPSRRQMVVNVVVTNGKIQDIHVRDEQ”, for which the protease stability score stood at 1.43.

In turn, “DETETMEQMIQDLHRALQQGDHETVKELIPPDAEMQIGDKTWHGKEQVARHLVEHAQTADHIDIDIKSIKIEGNKLVVNLKVVYDRNGHRETQTYELMVDVNNGEFRIVEQRQP” had a protease stability score of 0.921.

In the case of “DDEEARDIIRLMRHGNFDNIVKQMDPNVTLRYGNNTFHGRERAKHAAQRLKTHIDHVHLKDYKVHGDKIVIDMVYNVNGKHYEVRVVMHIHNGRIQKVQWDFRDDRDETDAEKRLS”, the protease stability score was 1.28.

The sequence “EEELAKRIRDFLHWVEKGNDDRAMELADPNARVDIGDRDIHGRESIREWVKKMQDKQRVEFDVKHVTVRGNTVVVDLVMRVEHNGQPSETKYQFEAKDNNGHLKFIKVTTIS” gave a protease stability score of 1.3.

The sequence “DEHKQIREFQKKQQKWWERGNWEELDKMFPPDARMSIGDTTVHGRESIRKTLKDLVDSADSVSVEFKHFKFHNGRAHVDAVLSVDVNGKKVDVKFNANLQVHNGTLFVDEVVRK” displayed a protease stability score of 0.118.

“DEHQRRKAKEFLDALRDGNPDDVKKYVDPNARRTVGDKSIHGRDQISHHVEKLKKKMRIEFRIQTITVHGNHIDIKAKMEFEINGKPNTHTFSQSMHAHNGKIKDIHVRIPEEVLRKSKR”: the protease stability score is -0.06.

On to “DERRQAQQFADTFDDNMQENNEEEVVKMADPNAELTVGDKEYHGREEIQKWIKQIHDKVDHLEIHIKSVDVRNGRVTIRARVRVEHNGRQKTMSVDIKAEQKNGRFIIKTMTMG”, for which the protease stability score was 1.47.

Consider “EKENVQSWLEAWNALRQGDEKRVEQLVDPNARMQVGDKKVEGMTRHVHKEVRKMKEIRVELDLKTVDTQGDHAVVKFRESRNHNGQPREQDVVVRMRAHNGRVQEVNVHEVS”, for which the protease stability score was 0.028.

Sequence “DEEAFKVMEKLEEDIHTGSEENIEKLFDPNARLRVGDHVVDGRHNIAKHVRDVRESARLEFSVRTYDMQGEKVRLDVTWRREHNGQPESATATVVAEIHNGRIVSVTVDERK” had a protease stability score of 0.801.

Consider “DEEELSHFLDVVRTGDFHEMAKMVDPNARINVGDKRVHGREDAETLIKEIQKRADHVEVDSYSIEGDKVRVLMRVNVNGVEVVFILVVQLNNGRIVHRQVDVTNEELEKQVRHANS”, for which the protease stability score turned out to be 0.659.

Sequence “DHEDAEKMKDLLTAEQQNDPDKVKEQADPNAQFRIGDQKVHGRNQYARIVKTLMERADVHILRIDNKDHNGQVHVSIDRVIDYNGRPKRDTETATARFHNGRLKELHIQFDPKKYQELKK” yielded a protease stability score of 0.027.

For “DESQVDEAKKMAKVWEDGDPDQLRRMADPNAKMHIGDKDIRGHTEATRWVRHLSEHMRQRLDSVRVDTEPNRAEAKIQLTVDVNGKPDRYTAHLNMVVDNGRVRKLEVRFDEEDKKRRQS”, the protease stability score was -0.139.

The sequence “DEDRYERLVKKAFEMIVKGNEEEVRKLLKPDVDYEYADHKFRGEEAAQFIVRLVQKVGAQAEVRRHKVEGNTATADFVYHDGDQTVQTRAEVTYEGDKLKQARVENTEEVKKLDHKG” displayed a protease stability score of 0.003.

The sequence “DERAREIVTRYFTALERGDPDKARKLADKDVRISVGDTQINGHDQMARTIDKQKKHMRIRFEDVKIHVNNGRADVKFHAVFEHNGKPERKNRTIIFNVHDGRIKEIQAQDDE” showed a protease stability score of 0.321.

“DENELELYKEVVEAENTGDPDEMKELVDPNVNVQVGDTTLHGMSELVKDAKRRRKQMRVDIKVTSMKAHNGRLEIRLEVVFEVNGRPTSDTITVTVHAHNGKVKEFNYHMDPDREKRQRS” displayed a protease stability score of 1.03.

Turning to “DEEWEETMTRLVKTGDFQSLVRLAPEDVKYVVGEKRIHGREHASEFAKKLTEQIDRIQVKEMHVSGDRVRADFELEFNGRKLKAVLVVKIHGDKVREVMIEVTDEHDEDILREIDD”, the protease stability score is 0.8.

Consider “DENVVKTAKNWFKAVQTGDTQEIHKNADPNARFQIGDKEYEGMEEYDKEQKERFEHMRVDYKDVTIRADGEHLHVKVKAKVNVNGQPHDVTFTIEARVDNGKFKEIVVKFDPDQQDRVEK”, for which the protease stability score was 0.338.

Sequence “DKDDLRRMHQLVTRNNPQKFKQQADKDAKVQYGDKTVTGMTDAARQMVKFWRQADHIEVKHVDVNGDKLNVVMRMNVNGRNLHMVVYYVVSNGHVRSASVTFTDPHQQEEFEKNAS” registered a protease stability score of 0.316.

As to “DEDDLRRIIKEFQKALKTGDTDEIRRQIDPNAHARYGDKEVHGREQLLSRLDELMNNVDHMQIDDLTFRGDKATVDFVMNHNGHERRHILHMVVHNGTIKSAHLDDS”, the protease stability score is 1.01.

Sequence “DSRSNAQRVLDAINQLVHGNPQEFNKNADPNVRATYGDKEVHGREEVKKHVDSLMKKVDHVQVKNYQITGDKARVQVVLDINGRTRHVQINAHAKNGRIKHVEIQQQ” displayed a protease stability score of 0.895.

Consider “DEEELRQAMKVVKTNDPDNLRKLMDENVRVQVGNKVYHGREEAEKWLERMRKQIDHVNVRRVQIQGDRIVVEMEVTVNGKTIEATLHAKLHNGSLKSLRVEATSEKEKEKIEEANK”, for which the protease stability score turned out to be 0.93.

“DSREQEDFRRKVETNNPDQEKKMFDENARLQVGDKTYHGREKVFDFLKTLMDQVDHVHVRDMHVKGDEYSFDIILDINGRRIHITFLARVHNGHIKSQSLRATDESVKDEIEELQG”: the protease stability score is 0.404.

The sequence “DDRQVERLAKEVVKNLETGNPNEFMKLMDPNAKFEVGDQDIHGREQWSEWVDHLSKHVDSLEVKSVTAHNGRVDIDMVFRVNGEKRVVKIVITVKNGHIKEMEIREQ” showed a protease stability score of 1.2.

“DEKEQADDAVRQLESAFNQGDWKKLADLFDENARVQYGDKELHGRQKWTTLVRDMEREHDHVEARVKSVHYHNGKIHLKIEIKAETNGRTTSVHVRYVAVVTNGRVEFENAKYS”: the protease stability score was found to be 0.973.

“DESQAKEFVDNFKTNNREELQKQVDKDAKMIVGNKEYHGEEQVQDALRDLNEEVDHLTIKSVELKGNSVTIYFIIVINGTRMTVHVVAVFHNGRVKKEVWTATDEDDKRKIDQVVG” displayed a protease stability score of 0.281.

“DDRHEMKTALKQLIDAIRQGNPDTIMSLLDPNVTFTYGDQNIRGREHVNTELVHRRNRVDNVHVNLQDIDQDGEKLHARFQMVLRRNGRNDTRDMVLVAQVHNGKARIRRLHHG” had a protease stability score of 0.557.

With “DDEVRKVVHEWWKALRTGDPDLAKKLADPNAEFQIGDKRVHGMKDFARKLTEEHKESEIEINIRHIDAQGDNVNVHFEFQIDRNGRPQTNTQTVHLRVNNGKITRFEMRTQS”, the protease stability score turned out to be 1.16.

“DEKLLKRLEEFWKAVRKGNKQEIEEYADPNVRFQIGDKQVHGRENAKKYFHDERREIRIEYHDLKVRVRGDRIEIRYTVQYTHNGQPTERHYDIEIVLNGEKMKSMSVRTDR”: the protease stability score is -0.026.

As for “DEEQNKLADTAMEAWNHGDPDQMVKMLDPNARVRYGDKQFHGRTDVKKWMKRLNDQARMSVTHYKIRVKGEKALLTARLEFEINGQPFRRHVKVVFNNHNGKAKQVDWQFDQDKQRKIES”, the protease stability score turned out to be 0.152.

“DEQNEAKRLVEKLQSIVKSGDEEEWMKQFDENVKVSVGDKTVHGREDMVKQYQQHVKRADTMELQVNEYSVHNGRVSIRYKMRVDVNGQRHTTEAHVDFRNVNGRFKAQSVNQK”: the protease stability score is 0.

“DEEAFKRFKEMVDAIRTGDRDRVRRLADPNARFEVGDKEVRGMDDYARKIKRKRDEIRMRYQIDSYSKSGDKVVARVQVEVEHNGQPSSHVYRAEFKNSNGRIVELNVKTDS” yielded a protease stability score of 0.275.

“DDKDIQEIAHEINHAWEEGDSKRFADLLSENARVDVGDKDYEGREFNKKWMKDIRDRVDHLEIDHVSAKGNTVEVTMVMNINGRNATVVVEYTFHNGQVRHAQLKFTSEEDKRKFHG” registered a protease stability score of 0.453.

“DKKLNKQMEEWVQAVNTGDSEQLEDLVDPNVRLEVGDKQFHGREEVRRQQTKKIEEIRLHLDLKDVKAENGHAQLDVNVEFEHNGQPNSNRRTLNAVVHNGKIKHLSDKTDP” had a protease stability score of -0.347.

Sequence “DEEAQKLLDMLRKAEQTGDEDRVRQLADEDVKVRIGDKVIHGREEWARHVRRERNEMRFKIQDLKVDVQGDHLSVKYTAHRDHNGQPQSDTYHYTLQMHNGRIKHLNVTEEK” had a protease stability score of -0.004.

Sequence “DEEALKVLKEWIKAVETGDEERIKELVDKDVTVQVGDKVIRGREQVAKTVRKEREEMRVEINFDRLHADGDRVSAEFKVVEETNGRPNTKKQRMSARVHNGKFKSMEIQDDG” gave a protease stability score of 0.205.
